From the RNAGym collection of RNA variant scans (doi:10.1021/acssynbio.7b00057)

B1: Pistol ribozyme (parent)
chain: GGGUCGUUGUUCCAUAAUCGCGUGGAUAUGGCACGCAAGUUUCUACCGGGCACCGUAAAUGUCCGACUGGAGCCGUUCGGGCGGCUAUAAACAGACCUCAGGCCCGAAGCGUGGCGGCACCUGCCGCCGGUGGUAAAAAAGAUCGGAAGAGCACACGUCU

Variants of: B1
Assay: aptazyme ON/OFF ratio, guanine; higher = stronger switching; co-transcriptional cleavage with and without guanine
In the case of U7A G9U U10C U11A C12A C13A, the “aptazyme ON/OFF ratio” value is reported as 1.2.
For U7A G9U U10C U11A C12A C13G, the “aptazyme ON/OFF ratio” value was 1.15.
For U7A G9U U10G U11C C12A C13U, the “aptazyme ON/OFF ratio” value was 1.24.
For U7A G9U U10G U11C C12A C13G, the “aptazyme ON/OFF ratio” value was 1.12.
In the case of U7A G9U U10G U11C C12A C13A, the “aptazyme ON/OFF ratio” value is reported as 1.14.
With U7A G9U U10A C12A C13U the “aptazyme ON/OFF ratio” value was 1.19.
With U7A G9U U10A C12A C13G the “aptazyme ON/OFF ratio” value was 1.07.
In the case of U7A G9U U10A C12A C13A, the “aptazyme ON/OFF ratio” value is reported as 1.1.
With U7A U8A G9A C12A C13U the “aptazyme ON/OFF ratio” value was 1.07.
With U7A U8A G9A C12A C13G the “aptazyme ON/OFF ratio” value was 1.06.
With U7A U8A G9A C12A C13A the “aptazyme ON/OFF ratio” value was 1.06.
With U7A G9U U11C C12A the “aptazyme ON/OFF ratio” value was 1.34.
In the case of U7A G9U U11C C12U, the “aptazyme ON/OFF ratio” value is reported as 1.16.
In the case of U7A G9U U11C C12G, the “aptazyme ON/OFF ratio” value is reported as 1.18.
In the case of U7A U8A C13U, the “aptazyme ON/OFF ratio” value is reported as 1.69.
With U7A U8A C13A the “aptazyme ON/OFF ratio” value was 1.38.
For U7A U8A C13G, the “aptazyme ON/OFF ratio” value was 1.22.
In the case of U7A G9U U10A C12G, the “aptazyme ON/OFF ratio” value is reported as 1.28.
With U7A G9U U10A C12U the “aptazyme ON/OFF ratio” value was 1.22.
With U7A G9U U10A C12A the “aptazyme ON/OFF ratio” value was 1.47.
For U7A U8A C12G C13G, the “aptazyme ON/OFF ratio” value was 1.35.
For U7A U8A C12G C13A, the “aptazyme ON/OFF ratio” value was 1.2.
With U7A U8A C12G C13U the “aptazyme ON/OFF ratio” value was 1.48.
With U7A G9U U10G U11C C13A the “aptazyme ON/OFF ratio” value was 1.1.
In the case of U7A G9U U10G U11C C13U, the “aptazyme ON/OFF ratio” value is reported as 1.05.
In the case of U7A G9U U10G U11C C13G, the “aptazyme ON/OFF ratio” value is reported as 1.08.
In the case of U7A G9U U10A U11C C12U, the “aptazyme ON/OFF ratio” value is reported as 1.08.
For U7A G9U U10A U11C C12A, the “aptazyme ON/OFF ratio” value was 1.26.
For U7A G9U U10A U11C C12G, the “aptazyme ON/OFF ratio” value was 1.25.
In the case of U7A G9U U10C U11C C12G C13A, the “aptazyme ON/OFF ratio” value is reported as 1.02.
For U7A G9U U10C U11C C12G C13U, the “aptazyme ON/OFF ratio” value was 1.01.
For U7A G9U U10C U11C C12G C13G, the “aptazyme ON/OFF ratio” value was 1.04.
With U7A G9U U10C U11A C12G C13A the “aptazyme ON/OFF ratio” value was 1.13.
For U7A G9U U10C U11A C12G C13G, the “aptazyme ON/OFF ratio” value was 1.14.
With U7A G9U U10C U11A C12G C13U the “aptazyme ON/OFF ratio” value was 1.12.
For U7A G9U U10A U11C C12U C13G, the “aptazyme ON/OFF ratio” value was 1.12.
In the case of U7A G9U U10A U11C C12U C13U, the “aptazyme ON/OFF ratio” value is reported as 1.18.
In the case of U7A G9U U10A U11C C12U C13A, the “aptazyme ON/OFF ratio” value is reported as 1.23.
For U7A U8A G9A U10A C12U C13U, the “aptazyme ON/OFF ratio” value was 1.47.
With U7A U8A G9A U10A C12U C13G the “aptazyme ON/OFF ratio” value was 1.19.
With U7A U8A G9A U10A C12U C13A the “aptazyme ON/OFF ratio” value was 1.27.
With U7A G9U U11C C12G C13G the “aptazyme ON/OFF ratio” value was 1.12.
For U7A G9U U11C C12G C13U, the “aptazyme ON/OFF ratio” value was 1.12.
In the case of U7A G9U U11C C12G C13A, the “aptazyme ON/OFF ratio” value is reported as 1.11.
With U7A G9U U10A U11C C12A C13U the “aptazyme ON/OFF ratio” value was 1.17.
For U7A G9U U10A U11C C12A C13A, the “aptazyme ON/OFF ratio” value was 1.22.
In the case of U7A G9U U10A U11C C12A C13G, the “aptazyme ON/OFF ratio” value is reported as 1.24.
In the case of U7A G9C U11G C12U C13A, the “aptazyme ON/OFF ratio” value is reported as 1.42.
For U7A G9C U11G C12U C13U, the “aptazyme ON/OFF ratio” value was 1.32.
In the case of U7A G9C U11G C12U C13G, the “aptazyme ON/OFF ratio” value is reported as 1.36.
In the case of U7A U8A C12U C13U, the “aptazyme ON/OFF ratio” value is reported as 1.38.
With U7A U8A C12U C13A the “aptazyme ON/OFF ratio” value was 1.29.
In the case of U7A U8A C12U C13G, the “aptazyme ON/OFF ratio” value is reported as 1.24.
For U7A G9U U10A U11C C13U, the “aptazyme ON/OFF ratio” value was 1.02.
For U7A G9U U10A U11C C13G, the “aptazyme ON/OFF ratio” value was 1.07.
In the case of U7A G9U U10A U11C C13A, the “aptazyme ON/OFF ratio” value is reported as 1.09.
With U7A G9U U10C U11C C12U the “aptazyme ON/OFF ratio” value was 1.03.
For U7A G9U U10C U11C C12G, the “aptazyme ON/OFF ratio” value was 1.05.
With U7A G9U U10C U11C C12A the “aptazyme ON/OFF ratio” value was 1.09.
With U7A G9U U10A U11A C13U the “aptazyme ON/OFF ratio” value was 1.16.
In the case of U7A G9U U10A U11A C13G, the “aptazyme ON/OFF ratio” value is reported as 1.1.
For U7A G9U U10A U11A C13A, the “aptazyme ON/OFF ratio” value was 1.17.
With U7A G9U U10C U11G C12G C13G the “aptazyme ON/OFF ratio” value was 1.16.
With U7A G9U U10C U11G C12G C13A the “aptazyme ON/OFF ratio” value was 1.14.
For U7A G9U U10C U11G C12G C13U, the “aptazyme ON/OFF ratio” value was 1.11.
With U7A U8A G9A U10A C12G C13G the “aptazyme ON/OFF ratio” value was 1.15.
With U7A U8A G9A U10A C12G C13A the “aptazyme ON/OFF ratio” value was 1.24.
With U7A U8A G9A U10A C12G C13U the “aptazyme ON/OFF ratio” value was 1.28.
In the case of U7A G9U U10C U11C C13G, the “aptazyme ON/OFF ratio” value is reported as 1.04.
For U7A G9U U10C U11C C13A, the “aptazyme ON/OFF ratio” value was 1.01.
In the case of U7A G9U U10C U11C C13U, the “aptazyme ON/OFF ratio” value is reported as 1.02.
In the case of U7A U8A G9A C13U, the “aptazyme ON/OFF ratio” value is reported as 1.22.
With U7A U8A G9A C13A the “aptazyme ON/OFF ratio” value was 1.11.
With U7A U8A G9A C13G the “aptazyme ON/OFF ratio” value was 1.11.
In the case of U7A G9U U11A C12A C13A, the “aptazyme ON/OFF ratio” value is reported as 1.39.
For U7A G9U U11A C12A C13U, the “aptazyme ON/OFF ratio” value was 1.19.
In the case of U7A G9U U11A C12A C13G, the “aptazyme ON/OFF ratio” value is reported as 1.16.
With U7A G9U C12U C13A the “aptazyme ON/OFF ratio” value was 1.19.
For U7A G9U C12U C13G, the “aptazyme ON/OFF ratio” value was 1.16.
In the case of U7A G9U C12U C13U, the “aptazyme ON/OFF ratio” value is reported as 1.21.
In the case of U7A G9U C12G C13G, the “aptazyme ON/OFF ratio” value is reported as 1.3.
In the case of U7A G9U C12G C13U, the “aptazyme ON/OFF ratio” value is reported as 1.3.
In the case of U7A G9U C12G C13A, the “aptazyme ON/OFF ratio” value is reported as 1.2.
